Data reported in patent US20190218277A1 (Chugai, published 2019).
Positions count from the first letter of the chain named. Where two headings read alike, the source gives them in different places.

T1: mouse FcγRI (mouse, UniProt P26151 25-297)
T1 construct: also called mFcγRI; mouse FcγR1
T1 sequence: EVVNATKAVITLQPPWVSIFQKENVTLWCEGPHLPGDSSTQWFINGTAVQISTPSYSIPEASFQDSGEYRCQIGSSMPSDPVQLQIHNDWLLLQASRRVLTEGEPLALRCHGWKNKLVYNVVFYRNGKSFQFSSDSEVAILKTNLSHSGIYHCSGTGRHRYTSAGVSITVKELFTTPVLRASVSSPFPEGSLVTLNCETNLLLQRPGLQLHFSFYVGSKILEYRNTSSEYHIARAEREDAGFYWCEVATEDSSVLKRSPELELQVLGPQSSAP

T2: mouse FcγRIV (mouse, UniProt A0A0B4J1G0 21-203)
T2 construct: also called mFcγRIV; mouse FcγR4
T2 sequence: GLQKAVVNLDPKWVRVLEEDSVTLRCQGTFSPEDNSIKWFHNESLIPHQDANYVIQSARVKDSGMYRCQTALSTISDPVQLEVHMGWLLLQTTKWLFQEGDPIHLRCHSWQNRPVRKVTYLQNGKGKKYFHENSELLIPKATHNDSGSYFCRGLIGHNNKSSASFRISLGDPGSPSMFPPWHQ

T3: human FcγRIIIb (NA1) (human, UniProt O75015 17-200)
T3 construct: also called human FcγR3b allelic variant NA1
T3 chain: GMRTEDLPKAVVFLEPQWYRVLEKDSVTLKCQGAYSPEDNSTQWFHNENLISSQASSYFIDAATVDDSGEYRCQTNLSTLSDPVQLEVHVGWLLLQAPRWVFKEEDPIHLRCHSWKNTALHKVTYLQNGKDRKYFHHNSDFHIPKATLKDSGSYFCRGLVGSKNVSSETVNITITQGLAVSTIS

T4: human FcγRIIb (human, UniProt P31994 43-217)
T4 construct: also called human FcγR2b
T4 sequence: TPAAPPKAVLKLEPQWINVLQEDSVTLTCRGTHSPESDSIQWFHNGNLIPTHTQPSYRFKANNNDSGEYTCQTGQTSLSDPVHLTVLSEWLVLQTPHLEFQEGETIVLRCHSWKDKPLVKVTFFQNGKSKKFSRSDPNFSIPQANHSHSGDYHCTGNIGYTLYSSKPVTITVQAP

T5: mouse FcγRIII (mouse, UniProt P08508 31-215)
T5 construct: also called mFcγRIII; mouse FcγR3
T5 chain: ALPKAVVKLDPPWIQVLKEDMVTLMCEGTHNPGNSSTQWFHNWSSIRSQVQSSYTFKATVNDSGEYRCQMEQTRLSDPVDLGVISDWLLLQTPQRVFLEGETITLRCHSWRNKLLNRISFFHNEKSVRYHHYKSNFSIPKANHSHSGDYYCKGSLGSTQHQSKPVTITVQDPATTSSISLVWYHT

B1: DG_3CH912-SG182/3CL-SK1 (antibody, human IgG1, kappa, V domains shown)
VH: QVQLVQSGPDVEKPGASVKVSCKASGYTFTSNYIHWVRQAPGQGLEWMGVINPRGGSRASAQKFQGRITMTRDTSTSTVYMELSSLRSEDTAVYYCARGGRALFYDSYTTPFDGGSWWFDPWGQGSLVTVSS
VL: DIQLTQSPSSLSASVGDRVTFTCQASQDIRKYLNWYQQKPGKAPKLLIYDASNLKTGVPSRFSGSGSGTDFTFTISSLQPEDVATYYCQQFDDLPITFGQGTRLQIKR
B2: DG_3CH953-SG182/3CL563-SK1 (antibody, human IgG1, kappa, V domains shown)
VH: B1 VH with A59R
VL: B1 VL with K31Q, T56F, D92S, D93A
B3: DG_3CH955-SG182/3CL563-SK1 (antibody, human IgG1, kappa, V domains shown)
VH: B1 VH with A59R, F112R, G114L
VL: B1 VL with K31Q, T56F, D92S, D93A
B4: DG_3CH955-SG182/3CL499-SK1 (antibody, human IgG1, kappa, V domains shown)
VH: B1 VH with A59R, F112R, G114L
VL: B1 VL with T56F, D93A
B5: Anti-CD154 antibody (SLAPH0336a/SLAPL0336a) with Fc variant LALA+EFT+AE (SG1089) (antibody, human IgG1, kappa)
heavy: EVQLVESGGGSVKPGGSLKLSCAASGFTFSDHYMYWVRQTPEKRLEWVAIISGGGSYTSYPDSMKGRFTISRDNAKNILHLQMSSLKSEDTAMYYCTRESNGKPGFAYWGQGTLVTVSAASTKGPSVFPLAPSSKSTSGGTAALGCLVKDYFPEPVTVSWNSGALTSGVHTFPAVLQSSGLYSLSSVVTVPSSSLGTQTYICNVNHKPSNTKVDKRVEPKSCDKTHTCPPCPAPEAAAGPSVFLFPPKPKDTLMISRTPEVTCVVVDVEFEDPEVKFNWYVDGVEVHNAKTKPREEQYNSTYRVVSVLTVLHQDWLNGKEYKCKVTNKALPAPEEKTISKAKGQPREPQVYTLPPSREEMTKNQVSLTCLVKGFYPSDIAVEWESNGQPENNYKTTPPVLDSDGSFFLYSKLTVDKSRWQQGNVFSCSVMHEALHNHYTQKSLSLSP
light: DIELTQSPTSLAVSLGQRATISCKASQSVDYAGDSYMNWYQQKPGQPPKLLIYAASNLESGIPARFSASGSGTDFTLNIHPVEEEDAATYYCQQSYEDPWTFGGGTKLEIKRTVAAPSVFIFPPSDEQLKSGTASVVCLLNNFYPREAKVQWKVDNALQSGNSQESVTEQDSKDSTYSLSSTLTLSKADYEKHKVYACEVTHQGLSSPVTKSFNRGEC
B6: Anti-CD154 antibody (SLAPH0336a/SLAPL0336a) with Fc variant LALA+KWES (SG1088) (antibody, human IgG1, kappa, L234A L235A)
heavy: B5 heavy with A238G, E269S, F270H, T326S, K328W, E334I, E335S
light: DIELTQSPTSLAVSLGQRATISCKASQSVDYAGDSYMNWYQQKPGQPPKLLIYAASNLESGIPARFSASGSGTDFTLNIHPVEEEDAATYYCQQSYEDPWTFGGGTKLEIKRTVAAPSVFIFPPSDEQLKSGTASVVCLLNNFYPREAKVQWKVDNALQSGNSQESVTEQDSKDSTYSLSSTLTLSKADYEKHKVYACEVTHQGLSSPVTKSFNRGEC
B7: Anti-CD154 antibody (SLAPH0336a/SLAPL0336a) with Fc variant LALA+KAES (SG1095) (antibody, human IgG1, kappa, L234A L235A)
heavy: B5 heavy with A238G, E269S, F270H, T326S, K328A, E334I, E335S
light: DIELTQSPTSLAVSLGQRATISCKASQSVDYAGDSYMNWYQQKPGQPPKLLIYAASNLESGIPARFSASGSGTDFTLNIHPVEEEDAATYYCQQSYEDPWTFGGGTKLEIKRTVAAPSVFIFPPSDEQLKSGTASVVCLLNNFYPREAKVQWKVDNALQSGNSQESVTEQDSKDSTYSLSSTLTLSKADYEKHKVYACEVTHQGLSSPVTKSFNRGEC

Key:
[1] = molecular target: T6, Recombinant soluble E protein (0.8E-His) from DENV-3 (DENV-3, UniProt P27915 281-673); experiment: SPR, Biacore T200
T6 construct: also called DENV-3 E protein; DV3

[2] = molecular target: T7, Recombinant soluble E protein (0.8E-His) from DENV-1 (DENV-1, UniProt P27909 281-675)
T7 construct: also called DENV-1 E protein; DV1

[3] = molecular target: T8, Recombinant soluble E protein (0.8E-His) from DENV-4 (DENV-4, UniProt P09866 280-674)
T8 construct: also called DENV-4 E protein; DV4

[4] = molecular target: T9, Recombinant soluble E protein (0.8E-His) from DENV-2 (DENV-2, UniProt P14340 281-675)
T9 construct: also called DENV-2 E protein; DV2

mouse FcγRI = molecular target: T1, mouse FcγRI; experiment: SPR (Biacore T200, pH 7.4, 25 °C): His-tagged FcγR captured by anti-His antibody; antibody injected at 100 nM alone (Ab alone) or as 1:1 complex with trimeric CD154 (CD154 IC); binding level / capture level [A]
mouse FcγRIV = molecular target: T2, mouse FcγRIV; experiment: SPR (Biacore T200, pH 7.4, 25 °C): His-tagged FcγR captured by anti-His antibody; antibody injected at 100 nM alone (Ab alone) or as 1:1 complex with trimeric CD154 (CD154 IC); binding level / capture level [D]
human FcγRIIIb (NA1) = molecular target: T3, human FcγRIIIb (NA1); experiment: SPR (Biacore T200, pH 7.4, 25 °C): His-tagged FcγR captured by anti-His antibody; antibody injected at 100 nM alone (Ab alone) or as 1:1 complex with trimeric CD154 (CD154 IC); binding level / capture level [G]
human FcγRIa = molecular target: T10, human FcγRIa (human, UniProt P12314 16-292); experiment: SPR (Biacore T200, pH 7.4, 25 °C): His-tagged FcγR captured by anti-His antibody; antibody injected at 100 nM alone (Ab alone) or as 1:1 complex with trimeric CD154 (CD154 IC); binding level / capture level [A]
T10 construct: also called human FcγR1a
T10 sequence (P12314 16-292 limits assumed): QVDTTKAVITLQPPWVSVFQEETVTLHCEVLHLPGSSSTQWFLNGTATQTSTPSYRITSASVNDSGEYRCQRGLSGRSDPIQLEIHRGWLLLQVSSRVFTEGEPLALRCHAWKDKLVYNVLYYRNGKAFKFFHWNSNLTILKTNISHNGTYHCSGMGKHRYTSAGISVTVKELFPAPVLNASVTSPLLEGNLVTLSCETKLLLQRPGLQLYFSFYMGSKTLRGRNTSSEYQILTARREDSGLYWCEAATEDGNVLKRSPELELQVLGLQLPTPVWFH

human FcγRIIb = molecular target: T4, human FcγRIIb; experiment: SPR (Biacore T200, pH 7.4, 25 °C): His-tagged FcγR captured by anti-His antibody; antibody injected at 100 nM alone (Ab alone) or as 1:1 complex with trimeric CD154 (CD154 IC); binding level / capture level [D]
human C1q (Calbiochem) [5] = molecular target: T11, human C1q (Calbiochem) (human, UniProt P02745 23-245; P02746 28-253; P02747 29-245); experiment: ELISA: antibody coated on the plate at the concentration shown, human C1q added, detected with HRP anti-human C1q, OD 450 nm
T11 sequence (P02745 23-245 limits assumed, chain 1 of 3): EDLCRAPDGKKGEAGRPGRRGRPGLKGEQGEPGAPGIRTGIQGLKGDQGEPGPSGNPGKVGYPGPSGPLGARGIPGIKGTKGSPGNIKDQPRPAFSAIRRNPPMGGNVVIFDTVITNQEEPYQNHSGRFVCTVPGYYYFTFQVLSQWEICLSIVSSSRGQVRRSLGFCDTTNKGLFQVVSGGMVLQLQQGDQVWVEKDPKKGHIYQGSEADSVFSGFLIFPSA
T11 sequence (P02746 28-253 limits assumed, chain 2 of 3): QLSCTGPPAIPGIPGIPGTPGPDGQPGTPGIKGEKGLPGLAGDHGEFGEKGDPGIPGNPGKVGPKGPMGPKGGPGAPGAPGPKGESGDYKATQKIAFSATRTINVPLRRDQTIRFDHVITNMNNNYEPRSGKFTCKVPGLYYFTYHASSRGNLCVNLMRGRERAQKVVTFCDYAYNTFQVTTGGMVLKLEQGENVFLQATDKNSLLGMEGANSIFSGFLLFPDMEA
T11 sequence (P02747 29-245 limits assumed, chain 3 of 3): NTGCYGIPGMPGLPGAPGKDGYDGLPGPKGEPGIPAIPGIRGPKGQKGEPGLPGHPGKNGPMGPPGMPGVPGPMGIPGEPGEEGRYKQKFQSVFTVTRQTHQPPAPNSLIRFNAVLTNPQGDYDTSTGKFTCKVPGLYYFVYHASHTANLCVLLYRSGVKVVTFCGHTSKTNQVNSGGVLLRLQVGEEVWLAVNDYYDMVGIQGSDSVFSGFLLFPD

mouse FcγRIII = molecular target: T5, mouse FcγRIII; experiment: SPR (Biacore T200, pH 7.4, 25 °C): His-tagged FcγR captured by anti-His antibody; antibody injected at 100 nM alone (Ab alone) or as 1:1 complex with trimeric CD154 (CD154 IC); binding level / capture level [C]
human FcγRIIIa (158V) = molecular target: T12, human FcγRIIIa (158V) (human, UniProt P08637 17-208); experiment: SPR (Biacore T200, pH 7.4, 25 °C): His-tagged FcγR captured by anti-His antibody; antibody injected at 100 nM alone (Ab alone) or as 1:1 complex with trimeric CD154 (CD154 IC); binding level / capture level [F]
T12 construct: also called human FcγR3a allelic variant 158V

human C1q (Calbiochem) [6] = molecular target: T11, human C1q (Calbiochem); experiment: ELISA: antibody coated on the plate at the concentration shown, human C1q added, detected with HRP anti-human C1q, OD 450 nm; remark: listed apart in the source
[7] = molecular target: mouse C1q (from 10% mouse plasma) (mouse, UniProt P98086 23-245; P14106 26-253; Q02105 30-246); experiment: ELISA: antibody coated on the plate at the concentration shown, 10% mouse plasma added, detected with biotinylated anti-mouse C1q and streptavidin-HRP, OD 405 nm
mouse C1q (from 10% mouse plasma), sequence (P98086 23-245 limits assumed, chain 1 of 3): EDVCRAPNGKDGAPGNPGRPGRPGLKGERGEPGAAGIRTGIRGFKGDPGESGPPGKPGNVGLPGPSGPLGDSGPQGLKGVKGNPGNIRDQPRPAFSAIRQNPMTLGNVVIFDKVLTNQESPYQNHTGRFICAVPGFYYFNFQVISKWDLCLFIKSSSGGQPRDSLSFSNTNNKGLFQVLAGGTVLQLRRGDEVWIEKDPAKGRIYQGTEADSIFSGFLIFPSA
mouse C1q (from 10% mouse plasma), sequence (P14106 26-253 limits assumed, chain 2 of 3): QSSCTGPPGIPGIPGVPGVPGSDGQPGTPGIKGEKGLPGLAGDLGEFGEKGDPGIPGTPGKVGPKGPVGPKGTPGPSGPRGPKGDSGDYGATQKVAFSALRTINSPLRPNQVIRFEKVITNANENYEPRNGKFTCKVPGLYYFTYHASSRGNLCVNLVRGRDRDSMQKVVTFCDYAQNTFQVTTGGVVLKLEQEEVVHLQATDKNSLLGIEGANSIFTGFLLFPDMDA
mouse C1q (from 10% mouse plasma), sequence (Q02105 30-246 limits assumed, chain 3 of 3): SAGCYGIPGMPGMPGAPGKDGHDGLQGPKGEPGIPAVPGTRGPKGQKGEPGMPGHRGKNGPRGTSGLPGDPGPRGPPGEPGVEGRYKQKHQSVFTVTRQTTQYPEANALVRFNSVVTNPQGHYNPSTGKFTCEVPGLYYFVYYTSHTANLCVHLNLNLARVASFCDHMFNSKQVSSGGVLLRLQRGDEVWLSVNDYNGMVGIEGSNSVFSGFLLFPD

Binder	binding result [1]	Kd [2]	Kd [3]	Kd [4]	binding result (human FcγRIa)	further results
B1	binds	1.85 nM	8.78 nM	0.811 nM	–	–
B2	binds	1.88 nM	8.21 nM	0.922 nM	–	–
B3	binds	1.91 nM	12.2 nM	1.04 nM	–	–
B4	binds	1.26 nM	8.26 nM	1.03 nM	–	–
B5	–	–	–	–	binds	binding result (mouse FcγRI): no binding (tested: 100 nM); binding result (mouse FcγRIV): binds; binding result (human FcγRIIIb (NA1)): no binding (tested: 100 nM); binding result (human FcγRIIb): binds; EC50 (read off the curve) (human C1q (Calbiochem) [5]): ~3 µg/mL; binding result (mouse FcγRIII): binds; binding result (human FcγRIIIa (158V)): binds
B6	–	–	–	–	binds	EC50 (read off the curve) (human C1q (Calbiochem) [6]): ~3 µg/mL; EC50 (read off the curve) (human C1q (Calbiochem) [5]): ~2 µg/mL
B7	–	–	–	–	binds	binding result (human C1q (Calbiochem) [6]): binds; binding result [7]: binds; binding result (human FcγRIIIa (158V)): binds
